63 sequences from the supplement of paper PMC9112550, “Optimization of the antimicrobial peptide Bac7 by deep mutational scanning” (BMC Biology, 2022) can be followed below.
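Note: peptides expressed intracellularly from a pBAD plasmid library in pooled LB shake-flask culture, induced with 0.3% L-arabinose, DNA abundance read by NGS, three biological replicates, DESeq2 with apeglm shrinkage.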

The subject of the series is Escherichia coli TOP10. As to the kind of experiment: shrunken log2 fold change of peptide-encoding DNA abundance (4.5 h post-induction vs induction); higher = less antimicrobial activity (less host growth inhibition). The note with it: time post-induction: 4.5 h; library: site-saturation at positions 5, 18, 19, 20.
Turning to RRIRCRPPRLPRPRPRPMDDPRP, the “shrunken log2 fold change” value is -0.194.

Regarding RRIRYRPPRLPRPRPRPFGAPRP, the “shrunken log2 fold change” value is -0.391.

Take RRIRERPPRLPRPRPRPNWHPRP: the “shrunken log2 fold change” value is -0.185.

With RRIRWRPPRLPRPRPRPTQTPRP, the “shrunken log2 fold change” value was determined as 0.551.

With RRIRCRPPRLPRPRPRPECSPRP, the “shrunken log2 fold change” value turned out to be 0.231.

On to RRIRIRPPRLPRPRPRPAEVPRP, for which the “shrunken log2 fold change” value was -0.041.

RRIRCRPPRLPRPRPRPYSQPRP: the “shrunken log2 fold change” value was -0.781.

RRIRCRPPRLPRPRPRPHPEPRP: the “shrunken log2 fold change” value is -0.168.

As for RRIRHRPPRLPRPRPRPDGDPRP, the “shrunken log2 fold change” value amounted to 0.0106.

RRIRDRPPRLPRPRPRPSITPRP: the “shrunken log2 fold change” value was -0.197.

With RRIRSRPPRLPRPRPRPDDQPRP, the “shrunken log2 fold change” value was 0.143.

Regarding RRIRSRPPRLPRPRPRPGYVPRP, the “shrunken log2 fold change” value is -0.809.

On to RRIRYRPPRLPRPRPRPQTIPRP, for which the “shrunken log2 fold change” value is -0.0196.

With RRIRWRPPRLPRPRPRPWHIPRP, the “shrunken log2 fold change” value stood at 0.106.

Regarding RRIRNRPPRLPRPRPRPCRPPRP, the “shrunken log2 fold change” value is -0.197.

Consider RRIRKRPPRLPRPRPRPVPFPRP, for which the “shrunken log2 fold change” value is -0.101.

Consider RRIRMRPPRLPRPRPRPLAEPRP, for which the “shrunken log2 fold change” value is 3.05.

On to RRIRPRPPRLPRPRPRPKHNPRP, for which the “shrunken log2 fold change” value is -0.303.

For RRIRVRPPRLPRPRPRPSKQPRP, the “shrunken log2 fold change” value is -0.201.

Take RRIRTRPPRLPRPRPRPNANPRP: the “shrunken log2 fold change” value was -0.0879.

Consider RRIRQRPPRLPRPRPRPWPGPRP, for which the “shrunken log2 fold change” value turned out to be 0.116.

Turning to RRIRERPPRLPRPRPRPVDEPRP, the “shrunken log2 fold change” value is -0.56.

As for RRIRCRPPRLPRPRPRPDQKPRP, the “shrunken log2 fold change” value is 0.0192.

Take RRIRGRPPRLPRPRPRPTGTPRP: the “shrunken log2 fold change” value is 0.517.

Consider RRIRRRPPRLPRPRPRPVATPRP, for which the “shrunken log2 fold change” value came out at 1.15.

In the case of RRIRYRPPRLPRPRPRPYEVPRP, the “shrunken log2 fold change” value was -0.343.

Regarding RRIRNRPPRLPRPRPRPVIIPRP, the “shrunken log2 fold change” value is -0.0963.

Regarding RRIRERPPRLPRPRPRPKWTPRP, the “shrunken log2 fold change” value worked out at 0.0657.

Regarding RRIRERPPRLPRPRPRPYRAPRP, the “shrunken log2 fold change” value was determined as 0.0532.

For RRIRWRPPRLPRPRPRPFQLPRP, the “shrunken log2 fold change” value is -0.316.

As to RRIRTRPPRLPRPRPRPCYNPRP, the “shrunken log2 fold change” value is -0.645.

Consider RRIRARPPRLPRPRPRPILNPRP, for which the “shrunken log2 fold change” value is -0.273.

On to RRIRRRPPRLPRPRPRPLIQPRP, for which the “shrunken log2 fold change” value came out at 0.256.

As to RRIRDRPPRLPRPRPRPARCPRP, the “shrunken log2 fold change” value was determined as 0.446.

On to RRIRTRPPRLPRPRPRPNLFPRP, for which the “shrunken log2 fold change” value was 0.0121.

Take RRIRVRPPRLPRPRPRPLNHPRP: the “shrunken log2 fold change” value was -0.17.

On to RRIRYRPPRLPRPRPRPNYKPRP, for which the “shrunken log2 fold change” value is -1.01.

In the case of RRIRMRPPRLPRPRPRPQNHPRP, the “shrunken log2 fold change” value is -0.337.

Take RRIRVRPPRLPRPRPRPPHPPRP: the “shrunken log2 fold change” value is 0.261.

In the case of RRIRDRPPRLPRPRPRPGYYPRP, the “shrunken log2 fold change” value was determined as 0.117.

For the sequence RRIRNRPPRLPRPRPRPMCPPRP, the “shrunken log2 fold change” value was -0.0135.

With RRIRPRPPRLPRPRPRPPCKPRP, the “shrunken log2 fold change” value is 0.19.

RRIRDRPPRLPRPRPRPMLSPRP: the “shrunken log2 fold change” value came out at 4.44e-05.

Regarding RRIRHRPPRLPRPRPRPLTIPRP, the “shrunken log2 fold change” value was -0.207.

With RRIRHRPPRLPRPRPRPMWIPRP, the “shrunken log2 fold change” value was -0.0176.

As for RRIRNRPPRLPRPRPRPYRNPRP, the “shrunken log2 fold change” value was -0.0239.

For RRIRFRPPRLPRPRPRPGNNPRP, the “shrunken log2 fold change” value is -0.276.

Consider RRIRNRPPRLPRPRPRPGPSPRP, for which the “shrunken log2 fold change” value stood at 0.516.

For the sequence RRIRTRPPRLPRPRPRPYPMPRP, the “shrunken log2 fold change” value is -1.43.

Regarding RRIRNRPPRLPRPRPRPIHSPRP, the “shrunken log2 fold change” value was -0.189.

Regarding RRIRSRPPRLPRPRPRPTTWPRP, the “shrunken log2 fold change” value turned out to be 0.053.

As for RRIRKRPPRLPRPRPRPCWFPRP, the “shrunken log2 fold change” value is -0.0655.

For the sequence RRIRMRPPRLPRPRPRPRKYPRP, the “shrunken log2 fold change” value is 0.276.

As for RRIRERPPRLPRPRPRPLDIPRP, the “shrunken log2 fold change” value is -0.0284.

Turning to RRIRERPPRLPRPRPRPFMGPRP, the “shrunken log2 fold change” value was -0.0195.

Turning to RRIRIRPPRLPRPRPRPMQYPRP, the “shrunken log2 fold change” value was -0.016.

As to RRIRIRPPRLPRPRPRPMSWPRP, the “shrunken log2 fold change” value is -0.402.

In the case of RRIRKRPPRLPRPRPRPYHDPRP, the “shrunken log2 fold change” value came out at 0.035.

As for RRIRGRPPRLPRPRPRPFLPPRP, the “shrunken log2 fold change” value was -0.148.

As for RRIRSRPPRLPRPRPRPFMGPRP, the “shrunken log2 fold change” value is -0.216.

RRIRPRPPRLPRPRPRPVPQPRP: the “shrunken log2 fold change” value was found to be 0.446.

Regarding RRIRMRPPRLPRPRPRPYKMPRP, the “shrunken log2 fold change” value was -0.277.

Take RRIRLRPPRLPRPRPRPPDWPRP: the “shrunken log2 fold change” value is 0.427.
